# Assay results as given in paper PMC8617079.
# Read-outs that look alike come from different tables or passages of the source.
# How the values were obtained:
# [1] = molecular target: 26S proteasome (mouse (endogenous in striatum and hippocampus tissue)) (UniProt P62196); assay: co-IP
# [2] = molecular target: 26S proteasome (mouse (endogenous in striatum and hippocampus tissue)) (UniProt P62196); assay: co-IP; remark: listed apart in the source
# Chain of UniProt P62196 (P62196 whole entry, looked up): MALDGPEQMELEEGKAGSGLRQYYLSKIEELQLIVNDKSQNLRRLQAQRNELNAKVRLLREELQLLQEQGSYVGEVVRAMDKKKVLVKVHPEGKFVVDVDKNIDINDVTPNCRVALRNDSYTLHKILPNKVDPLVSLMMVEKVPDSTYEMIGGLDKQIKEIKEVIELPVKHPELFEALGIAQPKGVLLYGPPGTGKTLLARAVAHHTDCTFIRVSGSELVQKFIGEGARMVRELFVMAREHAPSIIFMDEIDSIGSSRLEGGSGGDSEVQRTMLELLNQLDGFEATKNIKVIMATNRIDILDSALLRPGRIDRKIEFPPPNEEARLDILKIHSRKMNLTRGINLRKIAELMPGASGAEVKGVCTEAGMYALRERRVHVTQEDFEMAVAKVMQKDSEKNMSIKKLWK
substance,measurement,setting,value
gamma-enolase (ENO2) (from UniProt P17183 1-434) (natural protein),pixel total of the Eno2 band,[1],12400 pixels
same,pixel total of the Eno2 band,[2],9430 pixels
